# Patent US20240247080A1, “GLP1/GIP/NPY2 RECEPTOR TRIPLE AGONISTS” (Boehringer Ingelheim International GmbH, priority 2022, published 2024)
# Where a chain is given by its changes, count along the chain named. Starred links: 1 amine or outer side, 2 acyl side, 3 side chain; linkers in the order of their positions; H or OH if unused. Non-standard residues stand in square brackets, D forms with d. Groups on a side chain read outwards from the residue. No end group written: not given here. *: point of attachment. C18 diacid = O=C(O)CCCCCCCCCCCCCCCCC(=O)*; γGlu = O=C(O)[C@H](CCC(=O)[*:2])N[*:1]; εLys = N[C@@H](CCCCN[*:1])C(=O)[*:2]; Aib = CC(C)(N)C(=O)O; OEG = OEG spacer
# T1: human GIP receptor (human, UniProt P48546 22-466)
# T1 sequence (looked up): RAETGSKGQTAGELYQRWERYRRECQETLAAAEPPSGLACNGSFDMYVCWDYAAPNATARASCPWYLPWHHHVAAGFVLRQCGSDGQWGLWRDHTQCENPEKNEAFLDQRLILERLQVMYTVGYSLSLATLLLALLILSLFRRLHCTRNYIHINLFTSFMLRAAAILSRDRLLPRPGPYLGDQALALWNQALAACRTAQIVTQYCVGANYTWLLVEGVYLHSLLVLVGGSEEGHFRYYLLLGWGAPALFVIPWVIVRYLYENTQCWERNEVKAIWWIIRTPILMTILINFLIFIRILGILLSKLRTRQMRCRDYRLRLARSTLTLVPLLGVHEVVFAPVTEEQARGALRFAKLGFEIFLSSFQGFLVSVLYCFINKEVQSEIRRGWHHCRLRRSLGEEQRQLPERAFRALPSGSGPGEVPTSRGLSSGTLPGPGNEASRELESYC
# T2: human neuropeptide Y2 (NPY2) receptor (human, UniProt P49146 1-381)
# T2 sequence (looked up): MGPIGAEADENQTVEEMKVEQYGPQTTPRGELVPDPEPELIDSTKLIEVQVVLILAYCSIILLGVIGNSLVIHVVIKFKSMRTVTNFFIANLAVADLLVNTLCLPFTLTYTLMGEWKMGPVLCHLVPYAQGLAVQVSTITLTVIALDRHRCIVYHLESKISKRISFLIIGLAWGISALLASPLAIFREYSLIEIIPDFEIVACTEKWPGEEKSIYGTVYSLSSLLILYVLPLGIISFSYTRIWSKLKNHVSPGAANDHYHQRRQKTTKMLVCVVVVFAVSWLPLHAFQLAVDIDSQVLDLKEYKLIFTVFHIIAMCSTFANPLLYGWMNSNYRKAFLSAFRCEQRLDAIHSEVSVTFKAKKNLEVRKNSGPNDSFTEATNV
# T3: human neuropeptide Y2 receptor (human, UniProt P49146 1-381)
# T3 sequence (looked up): T2 sequence (looked up)
# T4: human GIP receptor (human, UniProt P48546 22-466)
# T4 sequence (looked up): T1 sequence (looked up)
# B1: Compound 259 (peptide)
# peptide: YXEGTFTSDYSIXLEKQAQXAFVEWLIKGGPSSGASLRHYYNWLTRQRY
# modifications: Aib at 2, 13, 20; K28 side chain acylated with C18DA-gGlu-gGlu-gGlu-gGlu-gGlu-gGlu-eLys; C-terminal amide (NH2)
# B2: Compound 85 (peptide)
# peptide: B1 peptide
# modifications: Aib at 2, 13, 20; NMeQ 47; K28 side chain: C20DA-gGlu-gGlu-gGlu-gGlu-gGlu-gGlu-eLys; C-terminal NH2
# B3: Compound 265 (peptide)
# peptide: B1 peptide with E24Q, S33E
# modifications: Aib at 2, 13, 20; K28 side chain acylated with C18DA-gGlu-gGlu-gGlu-gGlu-gGlu-gGlu-eLys; C-terminal amide (NH2)
# B4: Compound 261 (peptide)
# peptide: B1 peptide
# modifications: Aib at 2, 13, 20; K28 side chain acylated with C18DA-gGlu-gGlu-gGlu-gGlu-gGlu-OEG-OEG; C-terminal amide (NH2)
# B5: Compound 86 (peptide)
# peptide: B1 peptide with Y41L
# modifications: Aib at 2, 13, 20; K28 side chain: C20DA-gGlu-gGlu-gGlu-gGlu-gGlu-gGlu-eLys; C-terminal NH2
# B6: Compound 14 (peptide)
# peptide: B1 peptide with E24Q, S32R, S33Y, G34Y
# modifications: Aib at 2, 13, 20; K28 side chain: C20DA-gGlu-gGlu-gGlu-gGlu-gGlu-gGlu-eLys; C-terminal NH2
# B7: Compound 11 (peptide)
# peptide: B1 peptide with E24Q, S32E, G34P
# modifications: Aib at 2, 13, 20; K28 side chain: C20DA-gGlu-gGlu-gGlu-gGlu-gGlu; C-terminal NH2
# B8: Compound 87 (peptide)
# peptide: B1 peptide with E3D
# modifications: Aib at 2, 13, 20; K28 side chain: C20DA-gGlu-gGlu-gGlu-gGlu-gGlu-gGlu-eLys; C-terminal NH2
# B9: Compound 12 (peptide)
# peptide: B1 peptide with E24Q, S32E, G34P
# modifications: Aib at 2, 13, 20; K28 side chain: C18DA-gGlu-gGlu-gGlu-gGlu-gGlu; C-terminal NH2
# B10: Compound 16 (peptide)
# peptide: B1 peptide with K16X, Q17E, A21K
# modifications: Aib at 2, 13, 16, 20; K28 side chain: C20DA-gGlu-gGlu-gGlu-gGlu-gGlu-gGlu-eLys; C-terminal NH2
# B11: Compound 17 (peptide)
# peptide: B1 peptide with Y41L, W43L, L44X
# modifications: Aib at 2, 13, 20, 44; K28 side chain: C20DA-gGlu-gGlu-gGlu-gGlu-gGlu-gGlu-eLys; C-terminal NH2
# B12: Compound 15 (peptide)
# peptide: B1 peptide with E24Q, G34Y, A35V
# modifications: Aib at 2, 13, 20; K28 side chain: C20DA-gGlu-gGlu-gGlu-gGlu-gGlu-gGlu-eLys; C-terminal NH2
# B13: Compound 260 (peptide)
# peptide: B1 peptide
# modifications: Aib at 2, 13, 20; K28 side chain acylated with C18DA-gGlu-gGlu-gGlu-gGlu-gGlu-AHX; C-terminal amide (NH2)
# B14: Compound 10 (peptide)
# peptide: B1 peptide with G34P, A35E, L37X
# modifications: Aib at 2, 13, 20, 37; K28 side chain: C20DA-gGlu-gGlu-gGlu-gGlu-gGlu-gGlu-eK; C-terminal NH2
# How the values were obtained:
# Test in all cases: cell-based or functional assay
# human GIP receptor [1] = molecular target: T1, human GIP receptor
# human GLP-1 receptor [2] = molecular target: human GLP-1 receptor (human, UniProt P43220 24-463)
# [3] = molecular target: T2, human neuropeptide Y2 (NPY2) receptor
# [4] = molecular target: T3, human neuropeptide Y2 receptor
# human GLP-1 receptor [5] = molecular target: human GLP-1 receptor (human, UniProt P43220 24-463); remark: listed apart in the source
# human GIP receptor [6] = molecular target: T4, human GIP receptor; remark: listed apart in the source
Binder,"EC50, CreLuc assay, 0.5% hP (human GIP receptor [1]) [nM]","EC50, CreLuc assay, 100% hP (human GIP receptor [1]) [nM]","EC50, CreLuc assay, 0.5% hP (human GLP-1 receptor [2]) [nM]","EC50, CreLuc assay, 100% hP (human GLP-1 receptor [2]) [nM]","EC50, CreLuc assay, 0.5% hP [3] [nM]","EC50, CreLuc assay, 100% hP [3] [nM]",EC50 hNPY2R 0.5% hP (CreLuc) [4] [nM],EC50 hNPY2R 100% hP (CreLuc) [4] [nM],EC50 hGLP1R 0.5% hP (CreLuc) (human GLP-1 receptor [5]) [nM],EC50 hGLP1R 100% hP (CreLuc) (human GLP-1 receptor [5]) [nM],EC50 hGIPR 0.5% hP (CreLuc) (human GIP receptor [6]) [nM],EC50 hGIPR 100% hP (CreLuc) (human GIP receptor [6]) [nM]
Y[Aib]EGTFTSDYSI[Aib]LEKQAQ[Aib]AFVEWLIKGGPSSGAS[Aib]RHYYNR[Aib]TRQRY-NH2 (not fully specified (residue 28); also: TFA salt) [Compound 13],0.09,0.77,0.05,0.92,9.54,31.5,,,,,,
Y[Aib]EGTFTSDYSI[Aib]LEKQAQ[Aib]AFVQWLIK([Glu-Glu-Glu-Glu-Glu-Glu-C18 diacid])GGPSEGASLRHYYNWLTRQRY-NH2 (also: TFA salt) [Compound 264],,,,,,,16.8,81.2,0.11,3.95,0.28,1.82
Y[Aib]EGTFTSDYSI[Aib]LEKQAQ[Aib]AFVEWLIK([εLys-γGlu-γGlu-γGlu-γGlu-γGlu-C18 diacid])GGPSEPASLRHYYNWLTRQRY-NH2 (also: TFA salt) [Compound 263],,,,,,,15.8,83.2,0.32,5.21,0.12,1.5
Y[Aib]EGTFTSDYSI[Aib]LEKQAE[Aib]AFVEWLIK([γGlu-γGlu-γGlu-γGlu-C18 diacid])GGPSEGASLRHYYNWLTRQRY-NH2 (also: TFA salt) [Compound 262],,,,,,,13.2,58.2,0.13,4.28,0.08,0.53
B1,,,,,,,10.7,29.3,0.09,2.55,0.22,0.91
B2,0.22,1.11,0.15,2.75,10.3,34.4,,,,,,
B3,,,,,,,8.83,23,0.1,2.13,0.39,0.79
B4,,,,,,,24.1,64,0.15,3.91,0.18,1.15
B5,0.48,1.61,0.25,2.47,23.7,53.1,,,,,,
B6,0.71,2.22,0.4,7.13,6.85,28.5,,,,,,
B7,0.17,2.54,0.11,6.69,10.3,51.5,,,,,,
B8,0.58,5.65,0.08,2,20.7,73.4,,,,,,
B9,0.14,1.8,0.11,4.76,11.9,45.8,,,,,,
B10,0.66,4.53,1.48,30.3,28.8,197,,,,,,
B11,0.43,2.23,0.14,2.28,> 100,450,,,,,,
B12,0.32,2.43,0.16,4.11,6.01,15.4,,,,,,
B13,,,,,,,26.4,69.6,0.13,2.78,0.31,2.53
B14,0.07,1.25,0.11,2.59,18.2,42.2,,,,,,
Y[Aib]EGTFTSDYSI[Aib]LEKQAQ[Aib]AFVQWLIK([OEG-OEG-γGlu-γGlu-γGlu-C18 diacid])GGPSEGASLRHYYNWLTRQRY-NH2 (also: TFA salt) [Compound 266],,,,,,,7.2,22.9,0.1,2.21,0.13,0.65
